The data set relates to Escherichia coli TOP10. Kind of data set: shrunken log2 fold change of peptide-encoding DNA abundance (4.5 h post-induction vs induction); higher = less antimicrobial activity (less host growth inhibition). Conditions: time post-induction: 4.5 h; library: site-saturation at positions 5, 18, 19, 20.
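Also: peptides expressed intracellularly from a pBAD plasmid library in pooled LB shake-flask culture, induced with 0.3% L-arabinose, DNA abundance read by NGS, three biological replicates, DESeq2 with apeglm shrinkage.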

On to RRIRRRPPRLPRPRPRPHMLPRP, for which the “shrunken log2 fold change” value was -0.0594.
As to RRIRDRPPRLPRPRPRPIDNPRP, the “shrunken log2 fold change” value came to 0.131.
Under RRIRARPPRLPRPRPRPDVRPRP stands 0.0106.
Under RRIRLRPPRLPRPRPRPRHQPRP stands -0.254; under RRIRTRPPRLPRPRPRPKGQPRP, 0.0118.
As for RRIRNRPPRLPRPRPRPAMPPRP, the “shrunken log2 fold change” value came out at 0.236.
For RRIRDRPPRLPRPRPRPEQGPRP, the “shrunken log2 fold change” value stood at 0.0995.
Turning to RRIRMRPPRLPRPRPRPQDEPRP, the “shrunken log2 fold change” value is -0.0393.
Under RRIRYRPPRLPRPRPRPRFFPRP stands -0.0565; under RRIRWRPPRLPRPRPRPKYLPRP, -0.1; under RRIRYRPPRLPRPRPRPFQAPRP, -0.464.
As to RRIRQRPPRLPRPRPRPEIEPRP, the “shrunken log2 fold change” value was -0.00695.
Then RRIRYRPPRLPRPRPRPRKMPRP, with -0.178; and RRIRPRPPRLPRPRPRPTGVPRP, with 0.0313.
Under RRIRFRPPRLPRPRPRPWSAPRP stands -0.429; under RRIRKRPPRLPRPRPRPPLYPRP, 0.948.
Consider RRIRMRPPRLPRPRPRPMSRPRP, for which the “shrunken log2 fold change” value is 0.0997.
As to RRIRCRPPRLPRPRPRPWSEPRP, the “shrunken log2 fold change” value was -0.0285.
Then RRIRSRPPRLPRPRPRPGVWPRP, with 0.74; and RRIRLRPPRLPRPRPRPYSVPRP, with 0.0375.
Turning to RRIRARPPRLPRPRPRPLDGPRP, the “shrunken log2 fold change” value amounted to 0.425.
Under RRIRQRPPRLPRPRPRPKGVPRP stands -0.00208.
On to RRIRGRPPRLPRPRPRPEHLPRP, for which the “shrunken log2 fold change” value turned out to be 0.494.
RRIRVRPPRLPRPRPRPIFNPRP: the “shrunken log2 fold change” value is -0.274.
Regarding RRIRMRPPRLPRPRPRPPNEPRP, the “shrunken log2 fold change” value was 0.2.
Consider RRIRLRPPRLPRPRPRPYHWPRP, for which the “shrunken log2 fold change” value was -0.188.
Then RRIRQRPPRLPRPRPRPMDAPRP, with 0.05; and RRIRCRPPRLPRPRPRPDHMPRP, with -0.0636.
As for RRIRMRPPRLPRPRPRPQVDPRP, the “shrunken log2 fold change” value is -0.00893.
Then RRIRDRPPRLPRPRPRPWYNPRP, with -0.102.
For the sequence RRIRARPPRLPRPRPRPEFGPRP, the “shrunken log2 fold change” value turned out to be 0.874.
On to RRIRCRPPRLPRPRPRPPISPRP, for which the “shrunken log2 fold change” value is -0.38.
As for RRIRCRPPRLPRPRPRPFWWPRP, the “shrunken log2 fold change” value was found to be 0.925.
For RRIRTRPPRLPRPRPRPVNHPRP, the “shrunken log2 fold change” value is -0.0862.
In the case of RRIRKRPPRLPRPRPRPLQYPRP, the “shrunken log2 fold change” value is -0.0563.
Then RRIRVRPPRLPRPRPRPKKVPRP, with -0.11; and RRIRNRPPRLPRPRPRPSAMPRP, with -0.188.
On to RRIRWRPPRLPRPRPRPQIDPRP, for which the “shrunken log2 fold change” value is -0.688.
With RRIRRRPPRLPRPRPRPYYWPRP, the “shrunken log2 fold change” value is -0.0449.
Then RRIRPRPPRLPRPRPRPSPSPRP, with 0.132; and RRIRHRPPRLPRPRPRPSDEPRP, with -0.000726.
Under RRIRERPPRLPRPRPRPQQLPRP stands -0.178; under RRIRTRPPRLPRPRPRPHDKPRP, -0.51.
Then RRIRYRPPRLPRPRPRPVDAPRP, with -0.42; and RRIRHRPPRLPRPRPRPTWKPRP, with -0.011; and RRIRHRPPRLPRPRPRPATWPRP, with 0.222.
On to RRIRSRPPRLPRPRPRPVGCPRP, for which the “shrunken log2 fold change” value was found to be 0.281.
With RRIRARPPRLPRPRPRPRVYPRP, the “shrunken log2 fold change” value was found to be 0.441.
Then RRIRSRPPRLPRPRPRPEMPPRP, with 0.00153; and RRIRIRPPRLPRPRPRPPSYPRP, with -0.336.

The values are drawn from the supplement of paper PMC9112550, “Optimization of the antimicrobial peptide Bac7 by deep mutational scanning” (BMC Biology, 2022).
